# Measurements reported in PMC4027176, “Modulating TRAP-mediated transcription termination by AT during transcription of the leader region of the Bacillus subtilis trp operon” (Nucleic Acids Research, 2014).
# Substitutions are numbered along the chain they refer to. Names and notes keep the numbering of the source.
# T1: TRAP (trp RNA binding Attenuation Protein), WT (Bacillus subtilis) (UniProt P19466)
# T1 sequence: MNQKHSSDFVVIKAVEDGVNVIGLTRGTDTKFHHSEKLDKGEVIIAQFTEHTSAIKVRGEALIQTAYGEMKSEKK
# T2: TRAP-AT = 1:1 complex, (N20C)1(WT)10 TRAP 11mer crosslinked with BMOE to one D7C AT trimer N20C;D7C (Bacillus subtilis) (UniProt P19466+P19466+O31466)
# T2 sequence 1: T1 sequence
# T2 sequence 2: T1 sequence with N20C
# T2 sequence 3: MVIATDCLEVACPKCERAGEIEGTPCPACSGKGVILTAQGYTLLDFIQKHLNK
# T3: trp RNA binding Attenuation Protein (TRAP), wild type, 11mer (B. subtilis) (UniProt P19466)
# T3 sequence: T1 sequence
# B1: trp RNA binding Attenuation Protein (TRAP), wild type, 11mer (natural protein, B. subtilis, UniProt P19466 1-75, looked up)
# chain: T1 sequence
# notes: 11 identical subunits of 75 amino acids in a ring; also called WT TRAP; TRAP 11mer; copies: 11
# B2: His-tagged N20C (Asn20 replaced with Cys) TRAP (natural protein, B. subtilis, UniProt P19466 1-75, looked up)
# chain: T1 sequence with N20C
# notes: TRAP of Bacillus subtilis (mtrB), 75 amino acid subunit, with Asn20 replaced by Cys; six histidine residues at the carboxy terminus of each subunit; Cross-linking was done in the presence of 1 mM tryptophan; also called N20C TRAP; N20C TRAP 11mer; source: purified using Ni-agarose; not shown: His6, C-terminal, kept; copies: 11
# B3: Anti-TRAP (AT), wild type, trimer (natural protein)
# chain: T2 sequence 3 with C7D
# B4: AT containing a Cys substitution at residue 7 (D7C AT) (natural protein, B. subtilis, UniProt O31466 1-53, looked up)
# chain: T2 sequence 3
# notes: Anti-TRAP (AT) of Bacillus subtilis with Asp7 replaced by Cys; source: purified as described by Chen and Gollnick (19)
# What was measured:
# [1] = molecular target: T1, TRAP (trp RNA binding Attenuation Protein), WT (Bacillus subtilis); assay: pull-down of blocked TEC, immunoblot; conditions: Filter binding: 16 mM Tris pH 8.0, 250 mM KCl, 1 mM tryptophan, 10 ug yeast RNA, 37 C, 20 min. Pull-down: 20 mM Tris-HCl pH 8.0, 6 mM MgCl2, 2 mM DTT, 100 mM …
# [2] = molecular target: T1, TRAP (trp RNA binding Attenuation Protein), WT (Bacillus subtilis); assay: filter binding; conditions: Filter binding: 16 mM Tris pH 8.0, 250 mM KCl, 1 mM tryptophan, 10 ug yeast RNA, 37 C, 20 min. Pull-down: 20 mM Tris-HCl pH 8.0, 6 mM MgCl2, 2 mM DTT, 100 mM …
# [3] = molecular target: T2, TRAP-AT = 1:1 complex, (N20C)1(WT)10 TRAP 11mer crosslinked with BMOE to one D7C AT trimer N20C;D7C (Bacillus subtilis); assay: filter binding; conditions: Filter binding: 16 mM Tris pH 8.0, 250 mM KCl, 1 mM tryptophan, 10 ug yeast RNA, 37 C, 20 min. Pull-down: 20 mM Tris-HCl pH 8.0, 6 mM MgCl2, 2 mM DTT, 100 mM …
# [4] = molecular target: B2; assay: pull-down; limiting His-tagged N20C TRAP mixed with 50-fold excess WT TRAP, denatured in 5 M guanidine-HCl 1 h at room temperature, renatured by dialysis in 50 mM phosphate pH 8.0; hetero-11mers held on Ni agarose; conditions: both partners purified
# [5] = molecular target: the molecule itself; assay: cross-linking; BMOE (0.04 mM, 8 Å sulfhydryl cross-linker); N20C TRAP 0.02 mM and/or D7C AT 0.08 mM; 1 mM tryptophan; PBS pH 7.2, 0.5 mM EDTA; 37°C 1 h; 15% SDS gel, Coomassie
# [6] = molecular target: T3, trp RNA binding Attenuation Protein (TRAP), wild type, 11mer (B. subtilis)
molecule,measurement,setting,value
Eco116 nascent trp leader RNA (~11 repeats exposed),binding signal,[1],100 % TRAP bound
GAGUUGAGUUGAGUUGAGUUGAGUUGAGUUGAGUUGAGUUGAGUUGAGUUGAGUU [(GAGUU)11 RNA],Kd,[2],0.55 nM
same,Kd,[3],3.7 nM
Δ9-11Eco116 nascent trp leader RNA (7 repeats exposed),binding signal,[1],100 % TRAP bound
Δ10-11Eco116 nascent trp leader RNA (8 repeats exposed),binding signal,[1],100 % TRAP bound
B1,binding result,[4],binds
B2,binding result,[5],binds
B3,"in vitro transcription attenuation, Eco116 template; percent of transcripts terminated when AT was added after TRAP had bound the nascent transcript (post)",[6],80%
B4,binding result,[5],binds
